Test results published in US20050118148.

How the values were obtained:
Experiment in all cases: cell_activity
MafB (Mus musculus) = MafB (Mus musculus) (UniProt P54841); conditions: HeLa; +/-10.4
[1] = biological target: MafA (mouse L-Maf) (Mus musculus) (UniProt Q8CF90); conditions: HeLa; +/-2.8
c-Maf (Mus musculus) = c-Maf (Mus musculus) (UniProt P54843); conditions: HeLa; +/-12.1
c-Maf (Mus musculus), sequence (P54843 whole entry): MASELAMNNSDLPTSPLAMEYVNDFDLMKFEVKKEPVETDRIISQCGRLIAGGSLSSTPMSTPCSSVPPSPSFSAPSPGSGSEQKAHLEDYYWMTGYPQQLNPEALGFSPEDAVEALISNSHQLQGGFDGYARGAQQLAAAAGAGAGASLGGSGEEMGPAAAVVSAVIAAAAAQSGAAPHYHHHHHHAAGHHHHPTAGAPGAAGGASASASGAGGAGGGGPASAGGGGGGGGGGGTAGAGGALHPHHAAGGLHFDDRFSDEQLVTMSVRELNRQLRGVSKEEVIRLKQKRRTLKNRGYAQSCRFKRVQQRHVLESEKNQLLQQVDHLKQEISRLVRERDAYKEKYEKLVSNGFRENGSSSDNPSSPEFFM

MafB (Mus musculus), sequence (P54841 whole entry): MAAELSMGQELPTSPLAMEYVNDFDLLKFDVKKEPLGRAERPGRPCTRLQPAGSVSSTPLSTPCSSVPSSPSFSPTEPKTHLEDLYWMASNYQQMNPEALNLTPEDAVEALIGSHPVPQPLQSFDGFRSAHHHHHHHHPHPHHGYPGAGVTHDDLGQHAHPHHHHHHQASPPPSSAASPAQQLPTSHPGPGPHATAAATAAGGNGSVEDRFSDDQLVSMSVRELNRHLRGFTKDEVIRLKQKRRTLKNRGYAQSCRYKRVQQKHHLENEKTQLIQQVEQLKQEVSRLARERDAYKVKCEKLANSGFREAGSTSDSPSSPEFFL
MafA (mouse L-Maf) (Mus musculus), sequence (Q8CF90 whole entry): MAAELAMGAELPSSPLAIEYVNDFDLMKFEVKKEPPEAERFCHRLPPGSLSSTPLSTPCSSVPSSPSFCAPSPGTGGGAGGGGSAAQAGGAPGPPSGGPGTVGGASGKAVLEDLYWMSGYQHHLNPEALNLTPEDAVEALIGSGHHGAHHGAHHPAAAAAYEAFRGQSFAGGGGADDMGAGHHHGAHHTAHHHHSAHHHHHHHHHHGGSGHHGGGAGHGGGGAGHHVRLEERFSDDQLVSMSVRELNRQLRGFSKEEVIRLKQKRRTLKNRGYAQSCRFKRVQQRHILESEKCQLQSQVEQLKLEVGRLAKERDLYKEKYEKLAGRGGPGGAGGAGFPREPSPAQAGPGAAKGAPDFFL

## rat insulin II promoter -238/+2 (-238 WT LUC)
MafB (Mus musculus)
  activity (relative luciferase (printed as %)): 23.9
[1]
  activity (relative luciferase (printed as %)): 13.2
c-Maf (Mus musculus)
  activity (relative luciferase (printed as %)): 28
